A short description of data set [1]: OYE hydrogenation activity screen, NADPH oxidation at 340 nm. As to conditions: 1 mM substrate, 0.25 mM NADPH, 2.5 μg protein; cut-off 0.05 U/mg protein; ND = not detected. It is filed as biochemical. As for the experimental part: 25 putative OYE genes (Table 1) were cloned based on the Pfam domain of the FMN oxidoreductase family PF00724. Purified OYEs were screened for hydrogenation activity against acrolein, 2-cyclohexn-1-one, cis,cis-muconic acid, trans,trans-muconic acid, and 2-hexendioic acid. Substrate specificity was measured spectrophotometrically in 96-well plates by following incubation for 20 min at room temperature in the anaerobic chamber. Buffers and reagents were also degassed and sparged with Ar. Reaction mixtures contained potassium phosphate (50 mM and pH 7.0), NaCl (10 mM), NADPH (0.25 mM), various substrates (1 mM) and protein (2.5 μg) in a final volume of 200 μL. Enzyme reactions were monitored by following the decrease in absorbance at 340 nm (ε340 nm=6,200/M·cm) as a measure of the conversion of the cofactor NADPH to NADP+.

Data set [2] is described as follows: AR reductase activity, NAD(P)H oxidation at 340 nm. It is filed as biochemical. As to conditions: 10 mM, ND = no activity was detected. As for the experimental part: Enzyme activity of purified ARs was measured spectrophotometrically in 96-well plates Reaction mixtures contained 100 mM HEPES buffer (pH 7.5), 0.4 mM NADH/NADPH, 10 mM adipaldehyde or butylaldehyde, and proteins (10 μg for adipaldehyde screen, 2 μg for butyraldehyde screen) in a final volume of 200 μL Reaction mixture for adipaldehyde screening contained 1.8% DMSO. Enzyme reactions were monitored by following the decrease in absorbance at 340 nm (ε340 nm=6,220/M·cm) due to oxidation of NAD(P)H to NAD(P)+.

B1: RHA03305: OYE protein from Rhodococcus sp. RHA1 (protein)
chain: MQHTSTTASTLFSPLKLGSTELANRVALAPMTRVSGDEDGSANESIASYYEVFAKGGFGLLITEGIYPDTKYSQGYLNQPGLATAQHADSWKPVVERVHTAGARIFAQLMHAGAQSQGNRYVTETIAPSTTPPLGEQLGFYGGTGPYATPRALSLRDIDDVCAGFAQAAQHAVAAGFDGVEIHGANGYLLDQFLTDYMNQRDDEYGGSLANRLKIYREVIAAVRQVVGSKVTVGVRISQSKVSDYNHRWAGGESDAAEIFQGLAETGVDYIHTTEFDATAPAFADSGTTLAAFATKYSGLPVIANGQLGDPAAADALIENGSAQVISLGKPALANRDWPQRALDAKPIQSDVDPSVFSPMATVKSWELSA
On to B1, for which, in data set [1], the “Activity [U/mg protein] acrolein” value worked out at 0.08 U/mg protein.

B2: XCC0307: OYE protein from Xanthomonas campestris pv. campestris str. ATCC 33913 (protein)
chain: MSQLFTPINFGPLALANRIVIAPMCQYSAQDGRATDWHRIHLGTLSQSGAALLILEAAAVQPQGRISYADLGLYDDATEQALGEVLASVRRWSPMPIGIQLAHAGRKASTDLPWKGGEAIAPDHANGWQTVSASALPFRDGQPLPQALDAAGIDAVVEAFVTAAKRAERLELQLIELHAAHGYLMHQFLSPLSNQRSDAYGGSLDNRMRLTLRIFDAVRAAVSDQMAIGVRISATDWVDGGWDLPQSIALSKALDARGAHYIHVSSGGLDPRQQIPVQASYQIPFAEAIRAQVDTPVIGVGLITEPQQAEAILRDGQADAIALARGILYDPRWPWHAAAALGASVTPAPQYQRCEPREARGVFAS
Regarding B2, the “Activity [U/mg protein] 2-cyclohexen-1-one” value in data set [1] was 0.15 U/mg protein.

B3: BH2491: aldehyde reductase (AR) from Bacillus halodurans (protein)
chain: MLQGKTAIVTGASRGIGRATAMELARHGANVVVNYAGNKEKAEKVVAEIKELGVEAIAIQADVADSESVQAMVKETIDTFGAVDILVNNAGITRDNLFMRMKEEDWDAVIDTNLKGVFHCSKAVTRPMMKQRFGRIINVSSVVGAIGNAGQANYVAAKAGVIGLTKTLARELANRNITVNAVAPGFIETDMTGELPEDVKAQMLGQIPLARLGQPEEVAKAVRFLASDDASYLTGQTIHVNGGMVM
As to B3, in data set [2], the “Activity [U/mg protein] Butyraldehyde” value was determined as 0.108 ± 0.026 U/mg protein.

B4: PA1146: aldehyde reductase (AR) from Pseudomonas aeruginosa (protein)
chain: MSDLHYWNYPTDILCGVGALEQLPRRCALAGARRPLLVTDPGMRALEPLRLVRECLERAGIDHDLFHELSSNPSLAEVQGGARRFEAGGHDALIALGGGSALDAAKGIALLSRDPHGLERFEWTQTLRSYPTLADYPPLGLPPLLALPTTAGTGSELGREAVLTDTQLGIKRVVGHRELLAACVFLDPRLTRGLPPALSAATGMDALTHHLEALFSPLYHPMSAGIALEGVRLVRQHLENAVRDGNDLAAREGMLVASASAAVAFQKGLGGVHALAHPLGARHHLHHGLLNAVLLPYVLLANRPAIEADAARLARYLELDEASFDGLLAWILELRARIGIPANLAALGLDGEDAQWVGEQALADLSSSATNALPLDARDYARIYRQAVAGTLA
Take B4: the “Activity [U/mg protein] Adipaldehyde” value in data set [2] (1.8% DMSO) was found to be 0.696 ± 0.032 U/mg protein. The “Activity [U/mg protein] Butyraldehyde” value in data set [2] amounted to 1.68 ± 0.144 U/mg protein.

B5: CV3501: OYE protein from Chromobacterium violaceum ATCC 12472 (protein)
chain: MNADKLLTPLTMGAVALSNRVVMAPLTRLRNIEPGDVPGPLAKEYYRQRASAGLIVAEGTHISPTAKGYAGAPGIYSEEQVRAWSEVTGAVHQDGGKIALQLWHTGRISHRSLQPNGDAPVGPSAIQADSRTNIRAADGSLVREQCDTPRALEIEEIEDIIEDYRRAADNARRAGFDMVEIHGAHGYLIDQFLSPAANVRTDQYGGSVENRARFLLEVVDAVVAEWDADHVGIRISPLGIFNGVSNTDQLDMALYLAEQLAKRKLAFLHISEPDWAGGPTLDDGFRAELRQRYPGVIIGAGGYSAEKAETLLKKGFIDAAAFGRSYIANPDLVERLKQNAPLNPPKPDTFYGGGAEGYTDYPTL
Turning to B5, in data set [1], the “Activity [U/mg protein] 2-cyclohexen-1-one” value stood at 0.07 U/mg protein.

B6: CV_2177: aldehyde reductase (AR) from Chromobacterium violaceum (protein)
chain: MRRLEGKQALITGGTSGIGLETAKQFLAEGAKVAITGRSEAGLAQANEVLGGRALLLKSDAGSLDDQRALPAQLRSHGWSRLDAAYLNAGDVTHLPLADWSEADFDRVMAVNLKGPFFLLQALSPLLANPSSVILCGSVGARIGVPSSSAYAASKAGLLSLARTLSAEWLDRGIRVNGLSPGPTHTPAFGKLGMPEDELPALRDRIRKLVPLGRLGRPEELAKAAVFLASDESSYMLGSELLVDGGVGNV
Regarding B6, the “Activity [U/mg protein] Butyraldehyde” value in data set [2] was found to be 0.151 ± 0.054 U/mg protein.

B7: BH1481: OYE protein from Bacillus halodurans C-125 (protein)
chain: MEHKLFSSYVVKGVTLKNRIVMSPMCMYSSDQKDGKIRPFHISHYESRAAGQVGLIIVEATAVTPQGRISPYDLGIWSDDHISGLTETVERIHAHGAKAAIQLAHAGRKAELDGPIIAPSAISYDKMKTPDAMTEEQISETIEAFKLGALRAKKAGFDIIEIHGAHGYLINEFLSPLTNKRTDAYGGSLENRYRLLREIISEIQTVWDGPLFVRISAAEYAEGGNELSDFITLAKWMKKQGIDLIDCSSGAVVPAPIPVYPGYQVPLAEAIRHEANIATGAVGLITSGIQAEEILQNERADLIFVARELLRNPYWPREAALELGTTISGPSQYDRAWL
In the case of B7, the “Activity [U/mg protein] 2-cyclohexen-1-one” value in data set [1] stood at 0.13 U/mg protein.

B8: PSPH4058: OYE protein from Pseudomonas syringae phaseolicola 1448A (protein)
chain: MTTIFDPITIGDLQLPNRIIMAPLTRCRADEGRVPNALMSEYYVQRASAGLILTEATSVTPMGVGYPDTPGIWSNDQVRGWSNITKAVHTAGGRIVLQLWHVGRISHPAYLNGETPVAPSAIAAEGHVSLMRPITPLPTPRALELAEIGDIVEAYRVGAENAKAAGFDGVEVHGANGYLLEQFLLTGSNQRTDEYGGSVENRARLLLEVTDAVIEVWGAGRVGVHLSPRFDMHDMSDANRTETFSYVAKELGKRGIAFICARERDAEDSLGPQLKKDFGGVYIANEKFTKDTANTWLAEGKADAIAFGVPYIANPDLPERLASDAPLNEAHPETFYGKGPVGYIDYPRL
With B8, the “Activity [U/mg protein] 2-cyclohexen-1-one” value in data set [1] turned out to be 0.22 U/mg protein.

B9: SAV1511: OYE protein from Streptomyces avermitilis MA-4680 (protein)
chain: MSALFEPYSLRDLTIPNRVWMAPMCQYSAAPQGPAAGAPHDWHFAHYAARATGGTGLIVVEATAVSPEGRISPYDLGIWNDTQVEAFRRITRFLAAQGTVPAIQLAHGGRKASTDRPWKGGAPLAADEHGWQPLGPSPVAFDERHPVPTELSVAEIRQIVGQFADAARRALAAGFEIAEIHGAHGYLINEFLSPHSNRRTDEYGGSYENRVRFALEVVDAVREVWPAGKPLFFRVSATDWLDEGGWTADDTVRFAAELQAHGVDLLDVSTGGNASGVRIPTGPGYQVPFAARVKAGTSLPVAAVGLITDAEQAEKILANGEADAILLGRELLRNPSFARLAARELGGDVHVPAQYHRSV
In the case of B9, in data set [1], the “Activity [U/mg protein] 2-cyclohexen-1-one” value turned out to be 0.23 U/mg protein and the “Activity [U/mg protein] acrolein” value is recorded as 0.05 U/mg protein.

Values taken from US12371675B2, “Process and microorganism for synthesis of adipic acid from carboxylic acids” (THE GOVERNING COUNCIL OF THE UNIVERSITY OF TORONTO, priority 2015, dated 2025).
